Results from PMC9065133.
Values joined by “and” are separate entries in the source; they are usually repeats but may differ in a detail not shown here. Equal values may be shown once.

What was measured:
Assay in all cases: SEC-MALLS
[1] = target: MVV IN H12N (maedi-visna virus (KV1772 isolate))
MVV IN Y261E = conditions: IN injected at 2 mg/mL (bar); Superdex-200 column; parent: est. 170; read off a plot
MVV IN V252D = conditions: IN injected at 2 mg/mL (bar); Superdex-200 column; parent: est. 170; read off a plot
[2] = target: MVV IN chimera QQQ211PFV304-314 (portion of the PFV IN CCD-CTD linker between MVV IN Gln210 and Gln214) (maedi-visna virus (KV1772 isolate) | prototype foamy virus (PFV))
[3] = target: MVV IN QQ207GP (maedi-visna virus (KV1772 isolate))
MVV IN H12N = conditions: IN injected at 2 mg/mL (bar); Superdex-200 column; parent: est. 170; read off a plot
MVV IN E154Q = conditions: IN injected at 2 mg/mL (bar); Superdex-200 column; parent: est. 170; read off a plot
MVV IN V252A = conditions: IN injected at 2 mg/mL (bar); Superdex-200 column; parent: est. 170; read off a plot
MVV IN Y261A = conditions: IN injected at 2 mg/mL (bar); Superdex-200 column; parent: est. 170; read off a plot
MVV IN W245A = conditions: IN injected at 2 mg/mL (bar); Superdex-200 column; parent: est. 170; read off a plot
MVV IN QQQ211PGG = conditions: IN injected at 2 mg/mL (bar); Superdex-200 column; parent: est. 170; read off a plot
MVV IN W245L = conditions: IN injected at 2 mg/mL (bar); Superdex-200 column; parent: est. 170; read off a plot
MVV IN I272E = conditions: IN injected at 2 mg/mL (bar); Superdex-200 column; parent: est. 170; read off a plot
[4] = target: maedi-visna virus (MVV) integrase, wild type, KV1772 isolate (maedi-visna virus (KV1772 isolate))
[5] = target: MVV IN QQQ211PGG (maedi-visna virus (KV1772 isolate))
MVV IN QQ207GP = conditions: IN injected at 2 mg/mL (bar); Superdex-200 column; parent: est. 170; read off a plot
MVV IN F223A = conditions: IN injected at 2 mg/mL (bar); Superdex-200 column; parent: est. 170; read off a plot
MVV IN R231E = conditions: IN injected at 2 mg/mL (bar); Superdex-200 column; parent: est. 170; read off a plot
MVV IN V263E = conditions: IN injected at 2 mg/mL (bar); Superdex-200 column; parent: est. 170; read off a plot
MVV IN W245E = conditions: IN injected at 2 mg/mL (bar); Superdex-200 column; parent: est. 170; read off a plot
MVV IN Y225A = conditions: IN injected at 2 mg/mL (bar); Superdex-200 column; parent: est. 170; read off a plot

maedi-visna virus (MVV) integrase, wild type, KV1772 isolate, sequence (P03370 1226-1506 limits assumed): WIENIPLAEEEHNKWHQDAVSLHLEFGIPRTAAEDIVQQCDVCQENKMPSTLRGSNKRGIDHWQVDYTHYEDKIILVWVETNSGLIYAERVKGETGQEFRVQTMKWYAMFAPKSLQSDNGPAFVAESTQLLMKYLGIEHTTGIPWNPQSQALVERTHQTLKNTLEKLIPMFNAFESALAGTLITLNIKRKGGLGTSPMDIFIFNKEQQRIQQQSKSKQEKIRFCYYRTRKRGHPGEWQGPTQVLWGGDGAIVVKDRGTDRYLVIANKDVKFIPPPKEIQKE

With MVV IN H12N (enzyme) the stoichiometry N [1] was 2.
Work on “maedi-visna virus (MVV) integrase, wild type, KV1772 isolate Y261E” yielded an other: average molecular mass (MVV IN Y261E) of 78 kDa.
“maedi-visna virus (MVV) integrase, wild type, KV1772 isolate V252D” was tested, and the other: average molecular mass (MVV IN V252D) was 80 kDa.
Substance “MVV IN chimera QQQ211PFV304-314 (portion of the PFV IN CCD-CTD linker between MVV IN Gln210 and Gln214) (enzyme)” has a stoichiometry N [2] of 2.
With MVV IN QQ207GP (enzyme) the stoichiometry N [3] was 2.
With “maedi-visna virus (MVV) integrase, wild type, KV1772 isolate H12N” the other: average molecular mass (MVV IN H12N) was 40 kDa.
With “maedi-visna virus (MVV) integrase, wild type, KV1772 isolate E154Q” the other: average molecular mass (MVV IN E154Q) was 180 kDa.
Work on “maedi-visna virus (MVV) integrase, wild type, KV1772 isolate V252A” yielded an other: average molecular mass (MVV IN V252A) of 120 kDa.
“maedi-visna virus (MVV) integrase, wild type, KV1772 isolate Y261A” was tested, and the other: average molecular mass (MVV IN Y261A) was 100 kDa.
Substance “maedi-visna virus (MVV) integrase, wild type, KV1772 isolate W245A” has an other: average molecular mass (MVV IN W245A) of 120 kDa.
For “maedi-visna virus (MVV) integrase, wild type, KV1772 isolate Q211P; Q212G; Q213G”, the other: average molecular mass (MVV IN QQQ211PGG) was 65 kDa.
“maedi-visna virus (MVV) integrase, wild type, KV1772 isolate W245L” showed an other: average molecular mass (MVV IN W245L) of 110 kDa.
Work on “maedi-visna virus (MVV) integrase, wild type, KV1772 isolate I272E” yielded an other: average molecular mass (MVV IN I272E) of 100 kDa.
For “maedi-visna virus (MVV) integrase, wild type, KV1772 isolate (enzyme)”, the stoichiometry N [4] was 4 and 8.
With MVV IN QQQ211PGG (enzyme) the stoichiometry N [5] was 2.
Work on “maedi-visna virus (MVV) integrase, wild type, KV1772 isolate Q207G; Q208P” yielded an other: average molecular mass (MVV IN QQ207GP) of 65 kDa.
In the case of “maedi-visna virus (MVV) integrase, wild type, KV1772 isolate F223A”, the other: average molecular mass (MVV IN F223A) is reported as 120 kDa.
“maedi-visna virus (MVV) integrase, wild type, KV1772 isolate R231E” was tested, and the other: average molecular mass (MVV IN R231E) was 180 kDa.
With “maedi-visna virus (MVV) integrase, wild type, KV1772 isolate V263E” the other: average molecular mass (MVV IN V263E) was 110 kDa.
With “maedi-visna virus (MVV) integrase, wild type, KV1772 isolate W245E” the other: average molecular mass (MVV IN W245E) was 90 kDa.
“maedi-visna virus (MVV) integrase, wild type, KV1772 isolate Y225A” gave an other: average molecular mass (MVV IN Y225A) of 120 kDa.
